Laboratory results from patent US20260116983A1 (University of California, published 2026).
Positions count from the first letter of the chain named.

T1: cynomolgus uPAR (recombinant) (cynomolgus monkey, UniProt Q9GK78 23-303, limits assumed)
T1 construct: also called cyno uPAR; AF647-cyno uPAR
T1 sequence (looked up): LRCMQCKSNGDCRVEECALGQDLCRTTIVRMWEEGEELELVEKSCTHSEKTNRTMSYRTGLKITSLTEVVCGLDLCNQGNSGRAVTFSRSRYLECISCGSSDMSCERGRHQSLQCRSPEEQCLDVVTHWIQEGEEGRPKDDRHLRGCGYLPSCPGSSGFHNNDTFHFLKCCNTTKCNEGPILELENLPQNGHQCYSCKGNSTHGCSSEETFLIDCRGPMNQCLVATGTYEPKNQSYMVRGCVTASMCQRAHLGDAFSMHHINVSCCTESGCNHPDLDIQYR

B1: 11857 HC1 + LC1 (humanized) (antibody, V domains shown)
VH: EVQLVQSGAEVKKPGATVKISCKVSGYTFTDYYMNWVQQAPGKSLEWMGNINPNNGGTDYNQKFQGRVTITADKSTSTAYMELSSLRSEDTAVYYCARSYGSRFPYWGLGTLVTVSS
VL: DIQMTQSPSSLSASVGDRVTITCRASQDITNYLSWYQQKPGGTVKLLLYYTAVLQSGFPSRFSGSGSGADYTLTISSLQPEDFATYYCQQGHTLPWTFGGGTKVEIK
notes: detected with anti-human Fc antibody
B2: 11857 HC2 + LC1 (humanized) (antibody, V domains shown)
VH: B1 VH with T17S, I20V, V24A, Q38R, N61S, A72V, K74T, T76A
VL: B1 VL
notes: as for B1
B3: 11857 HC3 + LC1 (humanized) (antibody, V domains shown)
VH: EVQLVQSGAEVKKPGASVKVSCKASGYTFTDYYMNWVRQAPGKSLEWMGNINPNNGGTDYNQKFQGRVTLTVDTSISTAYMELSRLRSDDTVVYYCARSYGSRFPYWGLGTLVTVSS
VL: B1 VL
notes: as for B1
B4: 11857 HC1 + LC2 (humanized) (antibody, V domains shown)
VH: B1 VH
VL: B1 VL with L48I, Y49F, Y71F, F83V
notes: as for B1
B5: 11857 HC2 + LC2 (humanized) (antibody, V domains shown)
VH: B3 VH with N61S, L70I, I76A, R85S, D89E, V92A
VL: B1 VL with L48I, Y49F, Y71F, F83V
notes: as for B1
B6: 11857 HC3 + LC2 (humanized) (antibody, V domains shown)
VH: B3 VH
VL: B1 VL with L48I, Y49F, Y71F, F83V
B7: 3159 HC1 + LC3 (humanized) (antibody, V domains shown)
VH: QVTLRESGPALVKPTQTLTLTCTLSGFSLSTSGMGVSWIRQPPGKALEWLAHIYWDDDKRYSTSLKTRLTISKDASKDQVVLTMTNMDTVDTATYYCGRRVRNYFSGTSYWYFDVWGTGTLVTVSS
VL: DIVMTQSPLSLPVTPGEPASISCRSSQNILHRTGNTYLDWYLQKPGQSPQLLIYKVSNRFSGVPDRFSGSGSGTDFTLKISRVEAEDVGVYYCFQGSYVPFTFGQGTKLEIK
notes: as for B1
B8: 3159 HC2 + LC2 (humanized) (antibody, V domains shown)
VH: B7 VH with R5K, A10V, Q16E, L24V, A46G, T63P, T67S
VL: B7 VL with I2V, P15L, E17Q, D39E, Y41F, L42Q, K44R, Q50R
notes: as for B1
B9: 3159 HC3 + LC1 (humanized) (antibody, V domains shown)
VH: B7 VH with V2I, R5K, A10T, S62N, T63P, T67S, S72T
VL: B7 VL with S7T, P12S, E17Q, R24K, D39E, S48P
notes: as for B1
B10: 3159 HC3 + LC2 (humanized) (antibody, V domains shown)
VH: B7 VH with V2I, R5K, A10T, S62N, T63P, T67S, S72T
VL: B7 VL with I2V, P15L, E17Q, D39E, Y41F, L42Q, K44R, Q50R
notes: as for B1
B11: 3159 HC2 + LC1 (humanized) (antibody, V domains shown)
VH: B7 VH with R5K, A10V, Q16E, L24V, A46G, T63P, T67S
VL: B7 VL with S7T, P12S, E17Q, R24K, D39E, S48P
notes: as for B1
B12: 3159 HC2 + LC3 (humanized) (antibody, V domains shown)
VH: B7 VH with R5K, A10V, Q16E, L24V, A46G, T63P, T67S
VL: B7 VL
notes: as for B1
B13: 3159 HC3 + LC3 (humanized) (antibody, V domains shown)
VH: B7 VH with V2I, R5K, A10T, S62N, T63P, T67S, S72T
VL: B7 VL
notes: as for B1
B14: 3159 HC1 + LC2 (humanized) (antibody, V domains shown)
VH: B7 VH
VL: B7 VL with I2V, P15L, E17Q, D39E, Y41F, L42Q, K44R, Q50R
notes: as for B1
B15: 3159 HC1 + LC1 (humanized) (antibody, V domains shown)
VH: B7 VH
VL: B7 VL with S7T, P12S, E17Q, R24K, D39E, S48P
notes: as for B1
B16: Antibody 3159 (antibody, human IgG1, V domains shown)
VH: QVTLKESGPGILQSSLTLSLTCSLSGFSLSTSGMGVSWIRQPSGKGLEWLAHIYWDDDKRYNPSLKTRLTISKDASRDQVFLKIISVDTADTGTYYCGRRVRNYFSGTSYWYFDVWGTGTTVTVSS
VL: DVLMTQTPLSLSVSLGDQASISCRSSQNILHRTGNTYLEWYLQKPGQSPKLLIYKVSNRFSGVPDRFSGSGSGTDFTLKISRLEAEDLGVYYCFQGSYVPFTFGSGTKLEMK
notes: Chimeric: mouse VH/VL linked to Herceptin (trastuzumab) human IgG1 / kappa constant regions
B17: Antibody 8163 (antibody, human IgG1, V domains shown)
VH: EVQLVESGGGLVQPGESLTLSCDSNEFDFPSHDMSWVRKTPEKRLELVAAIDSDGGLTYYSNSRERRFIISRDNTKNTLYLQMRSLRSEDTALYYCARRRASYWYFDVWGTGTTVTVSS
VL: DILLTQSPAILPVSPGERVSFSCRASQNIGTSIHWYQQRTNGSPRLLIKYASESISGIPSRFSGSGSGTDFTLSINGVESEDIGDYYCQQSNSWPTFGGGTKLEIK
notes: as for B16
B18: Antibody 3595 (antibody, human IgG1, V domains shown)
VH: EVQLRQSGPELVKPGASVKISCKASGYTFTDYYMNWVKQSHEKSLEWIGNINPNNGGTDYNQKFKGKATLTVDKSSSTAYMELRSLTSEDSAVYYCARSYGSRFPYWGLGTLVTVSA
VL: DIQMTQTTSSLSASLGDRVTISCRASQDITNYLSWYQQKPDGTVKLLIFYTSFLQSGVPLRFSGSGSGADYSLTISNLEQEDFATYFCQQGHTLPWTFGGGTKLEIK
notes: as for B16
B19: 11857 HC1 + LC3 (humanized) (antibody, V domains shown)
VH: B1 VH
VL: B1 VL with Y36F, L48I, Y71F
notes: as for B1

The binders below were run against T2, human uPAR (recombinant protein used in ELISA and BLI) (human, UniProt Q03405 23-305, limits assumed) (assay: BLI (Octet HTX)).
T2 construct: Whole entry named; also called biotinylated human uPAR
Protocol: (§1) Kinetic constant ranges for Octet HTX were between 1 mM to 10 pM.

T2 sequence (Q03405 23-305 limits assumed): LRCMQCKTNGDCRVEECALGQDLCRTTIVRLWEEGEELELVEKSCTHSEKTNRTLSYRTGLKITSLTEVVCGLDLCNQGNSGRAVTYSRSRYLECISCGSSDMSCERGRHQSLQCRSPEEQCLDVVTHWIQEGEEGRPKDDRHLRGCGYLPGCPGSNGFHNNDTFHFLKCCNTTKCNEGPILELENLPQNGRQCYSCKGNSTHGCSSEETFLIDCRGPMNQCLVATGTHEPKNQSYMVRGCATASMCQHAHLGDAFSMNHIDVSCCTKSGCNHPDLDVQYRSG

Row | Binder | Kd [nM]
1 | B1 | 127
2 | B2 | 125
3 | B3 | 147
4 | B4 | 53.4
5 | B5 | 45.7
6 | B6 | 75.6
7 | B7 | 5.58
8 | B8 | < 0.01
9 | B9 | < 0.01
10 | B10 | 4.66
11 | B11 | < 0.01
12 | B12 | < 0.01
13 | B13 | 7.39
14 | B14 | < 0.01
15 | B15 | 6.79
16 | B16 | < 0.01

Each binder was assayed against T1, cynomolgus uPAR (recombinant) (assay: BLI (Octet HTX)).
Protocol: as §1

Row | Binder | Kd [nM]
17 | B1 | 69.7
18 | B2 | 307
19 | B3 | 83.9
20 | B4 | 32.4
21 | B5 | 59.5
22 | B6 | 59.6
23 | B7 | 162
24 | B8 | 404
25 | B9 | 202
26 | B10 | 2240
27 | B11 | 41.1
28 | B12 | 255
29 | B13 | 58.5
30 | B14 | 5870
31 | B15 | 556
32 | B16 | 934

These binders were tested against T3, human uPAR displayed on the surface of MDA-MB-231 cells (human, UniProt Q03405 23-305) (assay: cell-based or functional assay).
T3 sequence (Q03405 23-305): as the sequence (Q03405 23-305 limits assumed) above

Row | Binder | ADCC PBMCs EC50, fold lower than 2G10 [fold]
33 | B17 | 10 to 96

Target: T3, human uPAR displayed on the surface of …
Assay: cell-based or functional assay
Remark: another data set of the same source

Row | Binder | ADC Cytotoxicity EC50 [nM] | ADC Cytotoxicity Max % [%] | ADCC NK-92 EC50 [nM] | ADCC NK-92 Max % [%] | ADCC PBMCs EC50 [nM] | ADCC PBMCs Max % [%] | Adhesion blocking EC50 [nM]
34 | B18 | 0.66 | 34.8 | 0.2 | 21.9 | 0.1 | 55.6 | > 10000
35 | B17 | 0.57 | 28.7 | 1.14 | 18.8 | 0.09 | 57.5 | 5400
36 | B16 | 0.75 | 32 | 0.887 | 28.2 | 0.11 | 47.4 | 1610

Each binder was assayed against T1, cynomolgus uPAR (recombinant) (assay: ELISA, plate-coated cyno uPAR).
Protocol: (§2) To ensure the cross-reactivity of the 12 lead candidates was maintained with the Herceptin constant region, their binding to human and cyno uPAR was evaluated by ELISA (FIG. 3A).
(§3) Nunc MaxiSorp™ flat-bottom 96-well plates were coated with human or cyno uPAR (3.19 μg/mL) at 4° C. overnight, and plates were washed with wash buffer and blocked with 5% non-fat dry milk. A standard log serial dilution of each antibody candidate was added to the uPAR-coated plates and incubated at 4° C. overnight. Plates were washed three times and incubated with 50 μL of HRP-conjugated goat anti-human (H+L) antibody (Biorad). After a two-hr incubation, plates were washed, and 100 μL of 1-Step™ Turbo TMB-ELISA Substrate Solution (Thermo Scientific) was added to each well. The reaction was quenched with 2M H₂SO₄ for 5 min at room temperature, and the optical density of each well was measured at 450 nm using a SpectraMax190 microplate reader.

Row | Binder | EC50 [nM]
37 | B18 | 0.1
38 | B17 | 0.15
39 | B16 | 0.27

These binders were tested against T2, human uPAR (recombinant protein used in …) (assay: ELISA, plate-coated human uPAR).
Protocol: as §2, §3

Row | Binder | EC50 [nM]
40 | B18 | 0.05
41 | B17 | 0.41
42 | B16 | 0.53

These binders were tested against T3, human uPAR displayed on the surface of … (assay: flow cytometry on MDA-MB-231 cells).

Row | Binder | EC50 [µg/mL]
43 | B1 | 0.695
44 | B2 | 0.432
45 | B3 | 0.304
46 | B4 | 0.223
47 | B5 | 0.212
48 | B19 | 1.21
49 | B7 | 0.27
50 | B8 | 0.32
51 | B9 | 0.488
52 | B10 | 0.214
53 | B11 | 0.379
54 | B12 | 0.205
55 | B13 | 0.185
56 | B14 | 0.518
57 | B15 | 0.187
58 | B16 | 0.188

These binders were tested against T3, human uPAR displayed on the surface of … (assay: flow cytometry (FACS) on MDA-MB-231 cells).
Excerpt: Antibodies generated by immunizing animals with suPAR, which lacks the cell surface anchoring motif, can target protein regions that are not accessible for membrane-bound uPAR. […] Thus, FACS was applied to evaluate the cell-surface uPAR recognition by each antibody candidate under different concentrations of MDA-MB-231 cells, a triple-negative breast cancer cell line with high uPAR expression (FIG. 2).
MDA-MB-231 cells were harvested with TrypleE and resuspended in FACS buffer (PBS+1% BSA) to 2×10⁶ cells/mL before being aliquoted to a 96-well plate (100 μL, 2×10⁵ cells/well). Cells were pelleted by centrifuging the microplate for 5 min at 400 RCF and resuspended in PBS containing serially diluted antibodies to a maximum concentration of 600 nM, followed by a 50 min incubation at 4° C. Cells were then washed three times with PBS and incubated with an AlexaFluor488-conjugated goat anti-human IgG for 50 min at 4° C. in the dark. Finally, cells were washed twice with FACS buffer and resuspended in 80 μL for FACS analysis in a Bio-rad S3e Cell Sorter.

Row | Binder | Cellular recognition Max % [%] | EC50 [nM]
59 | B18 | 2280 | 0.453
60 | B17 | 2330 | 0.69
61 | B16 | 1830 | 0.916
